Experiment [1] has as its target T1, ADI-26906 IgG.
T1 construct: anti-CD3 IgG
Description: BLI; tip anti-CD3 IgG, solution ADI-34145 Fab. Here is the method: (§1) ForteBio affinity measurements were performed generally as previously described (Estep et al., MAbs. 2013 5(2):270-8). Briefly, ForteBio affinity measurements were performed by loading antibody IgG or Fabs on-line onto AHC sensors. Sensors were equilibrated off-line in assay buffer for 30 minutes and then monitored on-line for 60 seconds for baseline establishment. For avid binding measurement, sensors with loaded antibodies were exposed to IgG or Fab solutions for 3 minutes, afterwards they were transferred to assay buffer for 3 minutes for off-rate measurement. Kinetics data were fit using a 1:1 binding model in the data analysis software provided by ForteBio to obtain equilibrium dissociation constant (KD=koff/kₒₙ) values. In each column, tip-immobilized antibodies are listed first and solution antibodies second.
(§2) CTL-19613 is an IgG1 antibody prepared with anti-CD3 variable domains corresponding with those of clone 12C described in United States Publication Number US 2010/0183615 (e.g., see paragraphs 469-479 and FIG. 25 thereof), which also make up the CD3 binding domain of the bispecific antibody pasotuxizumab. […] In each column, tip-immobilized antibodies are listed first and solution antibodies second.
In general terms: BLI is a label-free optical method that tracks binding on a fibre tip over time.

In experiment [2] the target is T2, ADI-26916 IgG.
T2 construct: anti-CD3 IgG
Description: BLI; tip anti-CD3 IgG, solution ADI-34145 Fab. Here is the method: as §1, §2

For experiment [3], the target named is T3, ADI-26920 IgG.
T3 construct: anti-CD3 IgG
As to the kind of experiment: BLI; tip anti-CD3 IgG, solution ADI-34145 Fab. Here is the method: as §1, §2

The next experiment deals with T4, CTL-19672 IgG.
T4 construct: IgG1 with the anti-CD3 variable domains of clone 38E4v1
As to the kind of experiment: BLI; tip anti-CD3 IgG, solution ADI-34145 Fab. The procedure: as §1, §2

Experiment [4] concerns the target CTL-19613 IgG. As to the kind of experiment: BLI; tip anti-CD3 IgG, solution ADI-34145 Fab. The procedure: as §1, §2
Experiment [5] addresses T5, ADI-22523 IgG.
T5 construct: anti-CD3 IgG
As to the kind of experiment: BLI; tip anti-CD3 IgG, solution ADI-34145 Fab. Here is the method:
as §1, §2

Experiment [6] has as its target T6, ADI-26913 IgG.
T6 construct: anti-CD3 IgG
Description: BLI; tip anti-CD3 IgG, solution ADI-34145 Fab. The procedure:
as §1, §2

Experiment [7] concerns the target T7, ADI-26906 anti-CD3 bsIgG.
T7 construct: anti-HER2 IgG with one Fab arm replaced by the anti-CD3 scFv (printed 'Vx-VH', read as VL-VH); S354C and Y349C mutations; also called anti-CD3 bsIgG (ADI-26906 scFv); not shown: scFv linker; anti-HER2 Fab arm (heavy and light chain); hinge and Fc with S354C/Y349C
As to the kind of experiment: BLI; tip anti-CD3 bsIgG, solution ADI-34145 Fab. Here is the method: as §1
(§3) Additional analysis was conducted using bispecific antibody formats incorporating anti-CD3 antibody variable domains. Bispecific antibodies were prepared using standard IgG formats (bsIgG) with replacement of Fab arms with anti-CD3 scFvs in Vx-VH orientation and with S354C and Y349C mutations for disulfide stabilization. Antibodies used for Fab arm replacement were anti-HER2 IgG antibodies, with one Fab arm from each replaced by a scFv corresponding to a different anti-CD3 antibody. […] In each column, tip-immobilized antibodies are listed first and solution antibodies second. Anti-CD3 antibodies associated with incorporated scFvs are listed by antibody number.

Experiment [8] concerns the target T8, ADI-26913 anti-CD3 bsIgG.
T8 construct: anti-HER2 IgG with one Fab arm replaced by the anti-CD3 scFv (printed 'Vx-VH', read as VL-VH); S354C and Y349C mutations; also called anti-CD3 bsIgG (ADI-26913 scFv); not shown: scFv linker; anti-HER2 Fab arm (heavy and light chain); hinge and Fc with S354C/Y349C
Description: BLI; tip anti-CD3 bsIgG, solution ADI-34145 Fab. Here is the method: as §1, §3

For experiment [9], the target named is T9, ADI-26920 anti-CD3 bsIgG.
T9 construct: anti-HER2 IgG with one Fab arm replaced by the anti-CD3 scFv (printed 'Vx-VH', read as VL-VH); S354C and Y349C mutations; also called anti-CD3 bsIgG (ADI-26920 scFv); not shown: scFv linker; anti-HER2 Fab arm (heavy and light chain); hinge and Fc with S354C/Y349C
As to the kind of experiment: BLI; tip anti-CD3 bsIgG, solution ADI-34145 Fab. The procedure: as §1, §3

The target in the next experiment is T10, CTL-19672 anti-CD3 bsIgG (In the assay the two domains were one scFv (VL-VH orientation, linker not given). It replaced one Fab arm of an anti-HER2 IgG; S354C and Y349C mutations are stated for disulfide stabilization.).
T10 construct: anti-HER2 IgG with one Fab arm replaced by the anti-CD3 scFv (printed 'Vx-VH', read as VL-VH); S354C and Y349C mutations; not shown: scFv linker between VL and VH; anti-HER2 heavy and light chains of the other arm; hinge and Fc (with S354C / Y349C)
As to the kind of experiment: BLI; tip anti-CD3 bsIgG, solution ADI-34145 Fab. The procedure:
as §1, §3

Experiment [10] deals with T11, CTL-19613 anti-CD3 bsIgG (In the assay the two domains were one scFv (VL-VH orientation, linker not given). It replaced one Fab arm of an anti-HER2 IgG; S354C and Y349C mutations are stated for disulfide stabilization.).
T11 construct: anti-HER2 IgG with one Fab arm replaced by the anti-CD3 scFv (printed 'Vx-VH', read as VL-VH); S354C and Y349C mutations; also called anti-CD3 bsIgG (CTL-19613 scFv); not shown: scFv linker between VL and VH; anti-HER2 heavy and light chains of the other arm; hinge and Fc (with S354C / Y349C)
Description: BLI; tip anti-CD3 bsIgG, solution ADI-34145 Fab. The procedure: as §1, §3

Experiment [11] concerns the target T7, ADI-26906 anti-CD3 bsIgG. As to the kind of experiment: BLI; tip anti-CD3 bsIgG, solution ADI-34134 Fab. Here is the method: as §1, §3
Experiment [12] addresses T8, ADI-26913 anti-CD3 bsIgG. Description: BLI; tip anti-CD3 bsIgG, solution ADI-34134 Fab. Here is the method:
as §1, §3

Experiment [13] deals with T9, ADI-26920 anti-CD3 bsIgG. As to the kind of experiment: BLI; tip anti-CD3 bsIgG, solution ADI-34134 Fab. Here is the method: as §1, §3
The target in the next experiment is T12, ADI-26921 anti-CD3 bsIgG.
T12 construct: anti-HER2 IgG with one Fab arm replaced by the anti-CD3 scFv (printed 'Vx-VH', read as VL-VH); S354C and Y349C mutations; also called anti-CD3 bsIgG (ADI-26921 scFv); not shown: scFv linker; anti-HER2 Fab arm (heavy and light chain); hinge and Fc with S354C/Y349C
Description: BLI; tip anti-CD3 bsIgG, solution ADI-34134 Fab. The procedure:
as §1, §3

Experiment [14] concerns the target T11, CTL-19613 anti-CD3 bsIgG. As to the kind of experiment: BLI; tip anti-CD3 bsIgG, solution ADI-34134 Fab. Here is the method: as §1, §3
The target of another experiment is T13, ADI-22523 anti-CD3 bsIgG (In the assayed molecule VL and VH are joined as one scFv (printed 'Vx-VH' orientation) by an undisclosed linker and fused to an Fc, paired with an anti-HER2 half-IgG. They are given here as two …).
T13 construct: anti-HER2 IgG with one Fab arm replaced by the anti-CD3 scFv (printed 'Vx-VH', read as VL-VH); S354C and Y349C mutations; not shown: scFv linker between VL and VH; anti-HER2 heavy and light chains; hinge and Fc with S354C/Y349C
As to the kind of experiment: BLI; tip anti-CD3 bsIgG, solution ADI-34134 Fab. The procedure:
as §1, §3

Another experiment concerns the target T14, ADI-26927 anti-CD3 bsIgG.
T14 construct: anti-HER2 IgG with one Fab arm replaced by the anti-CD3 scFv (printed 'Vx-VH', read as VL-VH); S354C and Y349C mutations; also called anti-CD3 bsIgG (ADI-26927 scFv); not shown: scFv linker; anti-HER2 Fab arm (heavy and light chain); hinge and Fc with S354C/Y349C
As to the kind of experiment: BLI; tip anti-CD3 bsIgG, solution ADI-34134 Fab. The procedure: as §1, §3

A further experiment deals with T15, ADI-26928 anti-CD3 bsIgG.
T15 construct: anti-HER2 IgG with one Fab arm replaced by the anti-CD3 scFv (printed 'Vx-VH', read as VL-VH); S354C and Y349C mutations; also called anti-CD3 bsIgG (ADI-26928 scFv); not shown: scFv linker; anti-HER2 Fab arm (heavy and light chain); hinge and Fc with S354C/Y349C
Description: BLI; tip anti-CD3 bsIgG, solution ADI-34134 Fab. The procedure:
as §1, §3

The next experiment has as its target T16, ADI-26921 IgG.
T16 construct: anti-CD3 IgG
Description: BLI; tip anti-CD3 IgG, solution ADI-34134 Fab. The procedure: as §1, §2

Experiment [15] deals with T1, ADI-26906 IgG. Description: BLI; tip anti-CD3 IgG, solution ADI-34134 Fab. Here is the method: as §1, §2
The target of a further experiment is T17, ADI-26941 IgG.
T17 construct: anti-CD3 IgG
As to the kind of experiment: BLI; tip anti-CD3 IgG, solution ADI-34134 Fab. Here is the method: as §1, §2

Experiment [16] addresses T2, ADI-26916 IgG. Description: BLI; tip anti-CD3 IgG, solution ADI-34134 Fab. The procedure:
as §1, §2

The target of experiment [17] is T3, ADI-26920 IgG. As to the kind of experiment: BLI; tip anti-CD3 IgG, solution ADI-34134 Fab. Here is the method: as §1, §2
A further experiment deals with T18, ADI-26928 IgG.
T18 construct: anti-CD3 IgG
As to the kind of experiment: BLI; tip anti-CD3 IgG, solution ADI-34134 Fab. Here is the method:
as §1, §2

Experiment [18] addresses CTL-19613 IgG. As to the kind of experiment: BLI; tip anti-CD3 IgG, solution ADI-34134 Fab. Here is the method: as §1, §2
The target of experiment [19] is T5, ADI-22523 IgG. As to the kind of experiment: BLI; tip anti-CD3 IgG, solution ADI-34134 Fab. The procedure: as §1, §2
The target of experiment [20] is T6, ADI-26913 IgG. As to the kind of experiment: BLI; tip anti-CD3 IgG, solution ADI-34134 Fab. The procedure:
as §1, §2

For the next experiment, the target named is T19, ADI-26927 IgG.
T19 construct: anti-CD3 IgG
As to the kind of experiment: BLI; tip anti-CD3 IgG, solution ADI-34134 Fab. Here is the method:
as §1, §2

Usually Kd stands for the constant that tells how readily two partners part at equilibrium.

T6 sequence (VH, as listed by the source limits assumed, chain 1 of 2): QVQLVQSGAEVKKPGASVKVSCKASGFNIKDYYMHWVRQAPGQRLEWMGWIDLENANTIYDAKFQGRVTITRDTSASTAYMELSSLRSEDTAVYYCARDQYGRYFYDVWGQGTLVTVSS
T6 sequence (VL, as listed by the source limits assumed, chain 2 of 2): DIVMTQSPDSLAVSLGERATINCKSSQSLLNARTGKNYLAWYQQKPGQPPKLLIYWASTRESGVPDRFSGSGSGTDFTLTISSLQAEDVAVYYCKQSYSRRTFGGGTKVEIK
T3 sequence (VH, as listed by the source limits assumed, chain 1 of 2): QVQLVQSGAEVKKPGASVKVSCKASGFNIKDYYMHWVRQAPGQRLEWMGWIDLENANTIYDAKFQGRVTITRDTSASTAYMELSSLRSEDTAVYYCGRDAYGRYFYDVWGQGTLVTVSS
T3 sequence (VL, as listed by the source limits assumed, chain 2 of 2): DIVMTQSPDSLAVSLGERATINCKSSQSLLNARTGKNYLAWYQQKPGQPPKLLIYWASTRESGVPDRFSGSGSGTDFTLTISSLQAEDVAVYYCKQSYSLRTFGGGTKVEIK
T5 sequence (VH, as listed by the source limits assumed, chain 1 of 2): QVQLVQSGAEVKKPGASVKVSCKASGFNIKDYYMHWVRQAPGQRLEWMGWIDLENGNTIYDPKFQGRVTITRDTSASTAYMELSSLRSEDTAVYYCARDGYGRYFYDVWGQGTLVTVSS
T5 sequence (VL, as listed by the source limits assumed, chain 2 of 2): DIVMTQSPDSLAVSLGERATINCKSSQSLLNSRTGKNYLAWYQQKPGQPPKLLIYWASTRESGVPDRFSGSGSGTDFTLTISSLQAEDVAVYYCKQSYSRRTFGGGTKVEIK
T1 sequence (VH, as listed by the source limits assumed, chain 1 of 2): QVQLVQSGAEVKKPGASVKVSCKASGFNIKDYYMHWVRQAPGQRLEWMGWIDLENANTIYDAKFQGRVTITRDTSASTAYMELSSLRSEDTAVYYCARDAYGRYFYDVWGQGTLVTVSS
T2 sequence (VH, as listed by the source, chain 1 of 2): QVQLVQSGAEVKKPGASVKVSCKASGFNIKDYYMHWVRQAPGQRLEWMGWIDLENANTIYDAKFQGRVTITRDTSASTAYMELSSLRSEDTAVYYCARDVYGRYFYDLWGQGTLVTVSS
T19 sequence (VH, as listed by the source limits assumed, chain 1 of 2): as the sequence (VH, as listed by the source, chain 1 of 2) above, with N55E, A56G, V100R, R103A, L108V counted along it
T14 sequence (VH, as listed by the source limits assumed, chain 1 of 2): as the sequence (VH, as listed by the source, chain 1 of 2) above, with N55E, A56G, V100R, R103A, L108V counted along it
T10 sequence (VH, as listed by the source limits assumed, chain 1 of 2): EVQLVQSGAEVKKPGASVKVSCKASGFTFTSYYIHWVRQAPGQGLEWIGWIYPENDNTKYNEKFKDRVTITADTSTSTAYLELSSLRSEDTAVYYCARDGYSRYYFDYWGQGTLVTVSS
T10 sequence (VL, as listed by the source limits assumed, chain 2 of 2): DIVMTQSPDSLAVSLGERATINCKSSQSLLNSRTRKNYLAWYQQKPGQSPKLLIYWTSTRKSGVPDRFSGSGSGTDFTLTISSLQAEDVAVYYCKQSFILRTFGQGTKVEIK
T13 sequence (VH, as listed by the source limits assumed, chain 1 of 2): as the sequence (VH, as listed by the source, chain 1 of 2) above, with A56G, A62P, V100G, L108V counted along it
T17 sequence (VH, as listed by the source limits assumed, chain 1 of 2): as the sequence (VH, as listed by the source, chain 1 of 2) above, with N55E, A56G, V100Q, L108V counted along it
T17 sequence (VL, as listed by the source limits assumed, chain 2 of 2): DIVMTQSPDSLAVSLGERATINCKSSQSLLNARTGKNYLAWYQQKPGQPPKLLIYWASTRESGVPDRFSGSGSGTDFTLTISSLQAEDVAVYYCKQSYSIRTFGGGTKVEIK
T15 sequence (VH, as listed by the source limits assumed, chain 1 of 2): as the sequence (VH, as listed by the source, chain 1 of 2) above, with N55E, A56G, A97G, V100A, R103L, L108V counted along it
T18 sequence (VH, as listed by the source limits assumed, chain 1 of 2): as the sequence (VH, as listed by the source, chain 1 of 2) above, with N55E, A56G, A97G, V100A, R103L, L108V counted along it
T12 sequence (VH, as listed by the source limits assumed, chain 1 of 2): as the sequence (VH, as listed by the source, chain 1 of 2) above, with N55E, A56G, V100A, L108V counted along it
T16 sequence (VH, as listed by the source limits assumed, chain 1 of 2): as the sequence (VH, as listed by the source, chain 1 of 2) above, with N55E, A56G, V100A, L108V counted along it

B1: ADI-34145 Fab (Fab, V domains shown)
VH: EVQLLESGGGLVQPGGSLRLSCAASGFTFSSYAMSWVRQAPGKGLEWVSTISGSGGSTYYADSVKGRFTISRDNSKNTLYLQMNSLRAEDTAVYYCARLGGRRGSGSSYYYYYGMDVWGQGTTVTVSS
VL: not shown
notes: Fab made by papain digestion of the IgG
Take B1: the Kd came out at 3.25 nM with ADI-26906 IgG [1]; 19.4 nM with ADI-26916 IgG [2]; 8.97 nM with ADI-26920 IgG [3]; 3.22 nM with ADI-22523 IgG [5]; 3.15 nM with ADI-26913 IgG [6]; 24.4 nM with ADI-26906 anti-CD3 bsIgG [7]. The Kd with ADI-26913 anti-CD3 bsIgG [8] is 159 nM; with ADI-26920 anti-CD3 bsIgG [9] it was 93.8 nM. Also, the binding result with CTL-19672 IgG, with CTL-19613 IgG [4], with CTL-19672 anti-CD3 bsIgG and with CTL-19613 anti-CD3 bsIgG [10] was “no binding” throughout.

B2: ADI-34134 Fab (Fab, V domains shown)
VH: QVQLVQSGAEVKKPGSSVKVSCKASGGTFSSYAISWVRQAPGQGLEWMGGIIPIFGTANYAQKFQGRVTITADESTSTAYMELSSLRSEDTAVYYCARGAPNYYGSGGYDDGWFDPWGQGTLVTVSS
VL: EIVLTQSPGTLSLSPGERATLSCRASQSVSSDYLAWYQQKPGQAPRLLIYGASSRATGIPDRFSGSGSGTDFTLTISRLEPEDFAVYYCQQFGRVPTFGGGTKVEIK
notes: as for B1
Turning to B2, the equilibrium dissociation constant (Kd) with ADI-26906 anti-CD3 bsIgG [11] amounted to 27.2 nM; with ADI-26913 anti-CD3 bsIgG [12], 74.2 nM; with ADI-26920 anti-CD3 bsIgG [13] it was 28.7 nM; with ADI-26921 anti-CD3 bsIgG it was 37.1 nM; with ADI-22523 anti-CD3 bsIgG it was 10.9 nM; with ADI-26927 anti-CD3 bsIgG it was 48.9 nM. Further, the Kd was 110 nM with ADI-26928 anti-CD3 bsIgG; 56.5 nM with ADI-26921 IgG; 17.8 nM with ADI-26906 IgG [15]; 138 nM with ADI-26941 IgG; 157 nM in the experiment with ADI-26916 IgG [16]; 31 nM in the experiment with ADI-26920 IgG [17]. The dissociation constant (Kd) came to 185 nM with ADI-26928 IgG, 5.68 nM in the experiment with ADI-22523 IgG [19], 79.8 nM in the experiment with ADI-26913 IgG [20] and 38.2 nM with ADI-26927 IgG. The binding result with CTL-19613 anti-CD3 bsIgG [14] and in the experiment with CTL-19613 IgG [18] was “no binding” in each case.

These data come from patent US20250019439A1 (Adimab, published 2025).
